Assay results taken from the supplement of paper PMC9112550, “Optimization of the antimicrobial peptide Bac7 by deep mutational scanning” (BMC Biology, 2022).

System: Escherichia coli TOP10
Experiment: shrunken log2 fold change of peptide-encoding DNA abundance (4.5 h post-induction vs induction); higher = less antimicrobial activity (less host growth inhibition)
Conditions: time post-induction: 4.5 h; library: site-saturation at positions 5, 18, 19, 20
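Note: peptides expressed intracellularly from a pBAD plasmid library in pooled LB shake-flask culture, induced with 0.3% L-arabinose, DNA abundance read by NGS, three biological replicates, DESeq2 with apeglm shrinkage.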

Row | Sequence | shrunken log2 fold change
1 | RRIRHRPPRLPRPRPRPHIKPRP | -0.83
2 | RRIRYRPPRLPRPRPRPADYPRP | 3.66
3 | RRIRKRPPRLPRPRPRPFCWPRP | 0.48
4 | RRIRYRPPRLPRPRPRPHSRPRP | -0.103
5 | RRIRPRPPRLPRPRPRPWWKPRP | -0.0424
6 | RRIRNRPPRLPRPRPRPAIYPRP | -0.425
7 | RRIRMRPPRLPRPRPRPVPQPRP | 0.7
8 | RRIRKRPPRLPRPRPRPNSEPRP | 2.18
9 | RRIRSRPPRLPRPRPRPRAAPRP | 0.504
10 | RRIRPRPPRLPRPRPRPYTMPRP | 0.0535
11 | RRIRPRPPRLPRPRPRPFAQPRP | -0.0885
12 | RRIRGRPPRLPRPRPRPYCEPRP | 0.22
13 | RRIRWRPPRLPRPRPRPSVDPRP | 0.0991
14 | RRIRRRPPRLPRPRPRPSEVPRP | 1.94
15 | RRIRRRPPRLPRPRPRPYCWPRP | -0.474
16 | RRIRERPPRLPRPRPRPHKSPRP | -0.0459
17 | RRIRQRPPRLPRPRPRPFLTPRP | -0.156
18 | RRIRMRPPRLPRPRPRPTNYPRP | -0.212
19 | RRIRPRPPRLPRPRPRPQRQPRP | 0.109
20 | RRIRARPPRLPRPRPRPKVEPRP | 0.571
21 | RRIRCRPPRLPRPRPRPRHAPRP | 0.451
22 | RRIRSRPPRLPRPRPRPFWNPRP | -0.139

Row | Sequence | shrunken log2 fold change
23 | RRIRSRPPRLPRPRPRPILPPRP | 0.161
24 | RRIRGRPPRLPRPRPRPRKFPRP | 0.399
25 | RRIRFRPPRLPRPRPRPCKPPRP | -0.109
26 | RRIRQRPPRLPRPRPRPSKGPRP | 0.0585
27 | RRIRERPPRLPRPRPRPTNYPRP | -0.068
28 | RRIRLRPPRLPRPRPRPHCLPRP | -0.0829
29 | RRIRRRPPRLPRPRPRPFADPRP | -0.0461
30 | RRIRRRPPRLPRPRPRPRQCPRP | 0.596
31 | RRIRFRPPRLPRPRPRPFPVPRP | -0.0374
32 | RRIRCRPPRLPRPRPRPWQWPRP | 0.187
33 | RRIRSRPPRLPRPRPRPVIEPRP | -0.186
34 | RRIRCRPPRLPRPRPRPENSPRP | -0.0484
35 | RRIRPRPPRLPRPRPRPDPWPRP | -0.0279
36 | RRIRKRPPRLPRPRPRPHQIPRP | 0.0638
37 | RRIRMRPPRLPRPRPRPWFFPRP | -0.0229
38 | RRIRLRPPRLPRPRPRPPCCPRP | -0.0934
39 | RRIRYRPPRLPRPRPRPLTPPRP | 0.0282
40 | RRIRWRPPRLPRPRPRPPDTPRP | 0.525
41 | RRIRIRPPRLPRPRPRPVRLPRP | 0.499
42 | RRIRGRPPRLPRPRPRPFFDPRP | 0.541
43 | RRIRTRPPRLPRPRPRPDNIPRP | -0.38
44 | RRIRCRPPRLPRPRPRPAHWPRP | 0.337

Row | Sequence | shrunken log2 fold change
45 | RRIRIRPPRLPRPRPRPLCTPRP | -0.407
46 | RRIRKRPPRLPRPRPRPVTVPRP | -0.0834
47 | RRIRRRPPRLPRPRPRPQHEPRP | 0.343
48 | RRIRHRPPRLPRPRPRPTTYPRP | -0.9
49 | RRIRFRPPRLPRPRPRPERNPRP | -0.184
50 | RRIRFRPPRLPRPRPRPHQEPRP | -0.0079
51 | RRIRFRPPRLPRPRPRPTKGPRP | -0.0144
52 | RRIRRRPPRLPRPRPRPHYRPRP | -0.306
53 | RRIRIRPPRLPRPRPRPLEPPRP | 0.111
54 | RRIRWRPPRLPRPRPRPVASPRP | 0.27
55 | RRIRIRPPRLPRPRPRPIMCPRP | -0.0373
56 | RRIRHRPPRLPRPRPRPLIYPRP | -0.569
57 | RRIRDRPPRLPRPRPRPCAVPRP | 0.189
58 | RRIRTRPPRLPRPRPRPTAWPRP | 0.48
59 | RRIRLRPPRLPRPRPRPPAHPRP | 0.445
60 | RRIRSRPPRLPRPRPRPNRIPRP | -0.304
61 | RRIRKRPPRLPRPRPRPQGKPRP | 0.0114
62 | RRIRDRPPRLPRPRPRPSISPRP | -0.0844
63 | RRIRSRPPRLPRPRPRPVDRPRP | 0.0715
64 | RRIRPRPPRLPRPRPRPQNMPRP | -0.358
65 | RRIRQRPPRLPRPRPRPGRLPRP | 0.0206
66 | RRIRKRPPRLPRPRPRPCGSPRP | -0.0192

Row | Sequence | shrunken log2 fold change
67 | RRIRARPPRLPRPRPRPVSMPRP | 0.229
68 | RRIRHRPPRLPRPRPRPKRIPRP | -0.0337
69 | RRIRMRPPRLPRPRPRPRNCPRP | 0.0629
70 | RRIRYRPPRLPRPRPRPTARPRP | -0.0799
71 | RRIRLRPPRLPRPRPRPFTDPRP | -0.317
72 | RRIRVRPPRLPRPRPRPTYSPRP | -0.0431
73 | RRIRERPPRLPRPRPRPPPLPRP | 0.222
74 | RRIRKRPPRLPRPRPRPHDHPRP | -0.162
75 | RRIRFRPPRLPRPRPRPSSYPRP | -0.676
76 | RRIRTRPPRLPRPRPRPFLVPRP | -0.404
77 | RRIRSRPPRLPRPRPRPLYMPRP | -1
78 | RRIRVRPPRLPRPRPRPVPVPRP | 0.0573
79 | RRIRPRPPRLPRPRPRPRFMPRP | -0.0826
80 | RRIRMRPPRLPRPRPRPSFEPRP | 0.318
81 | RRIRKRPPRLPRPRPRPVHKPRP | 0.288
82 | RRIRYRPPRLPRPRPRPNRRPRP | -0.023
83 | RRIRIRPPRLPRPRPRPINEPRP | -0.516
84 | RRIRLRPPRLPRPRPRPETHPRP | 0.161
85 | RRIRIRPPRLPRPRPRPGLGPRP | 0.217
86 | RRIRKRPPRLPRPRPRPWWRPRP | -0.108
87 | RRIRPRPPRLPRPRPRPPEVPRP | -0.0265
88 | RRIRSRPPRLPRPRPRPRGHPRP | -0.0222

Row | Sequence | shrunken log2 fold change
89 | RRIRARPPRLPRPRPRPYLMPRP | -0.648
90 | RRIRHRPPRLPRPRPRPVLFPRP | -0.0987
91 | RRIRQRPPRLPRPRPRPMEHPRP | 0.0112
92 | RRIRFRPPRLPRPRPRPMPKPRP | 0.856
93 | RRIRIRPPRLPRPRPRPRECPRP | 0.146
94 | RRIRMRPPRLPRPRPRPGEYPRP | 0.434
95 | RRIRFRPPRLPRPRPRPSAFPRP | -0.204
96 | RRIRIRPPRLPRPRPRPAFIPRP | -0.509
97 | RRIRQRPPRLPRPRPRPCCHPRP | -0.197
98 | RRIRKRPPRLPRPRPRPNMSPRP | -0.0139
99 | RRIRDRPPRLPRPRPRPYHKPRP | -0.0174
100 | RRIRARPPRLPRPRPRPLSAPRP | 0.636
101 | RRIRGRPPRLPRPRPRPWDWPRP | 1.2
102 | RRIRNRPPRLPRPRPRPMWQPRP | -0.222
103 | RRIRCRPPRLPRPRPRPLHEPRP | -0.23
104 | RRIRHRPPRLPRPRPRPTYWPRP | 0.293
105 | RRIRWRPPRLPRPRPRPVMSPRP | -0.172
106 | RRIRMRPPRLPRPRPRPVMNPRP | 0.196
107 | RRIRLRPPRLPRPRPRPVRYPRP | -0.162
108 | RRIRFRPPRLPRPRPRPWSHPRP | -0.843
109 | RRIRERPPRLPRPRPRPTGSPRP | -0.211
